# Test results from patent US20260028422A1 (CONCEPT TO MEDICINE BIOTECH, published 2026).
# Where two headings read alike, the source gives them in different places.
# T1: human MerTK expressed on cells (human, UniProt Q12866 21-999)
# T1 construct: whole, on cells; also called CHO-K1-hMerTK; CHO-K1-MerTK
# T1 sequence (looked up): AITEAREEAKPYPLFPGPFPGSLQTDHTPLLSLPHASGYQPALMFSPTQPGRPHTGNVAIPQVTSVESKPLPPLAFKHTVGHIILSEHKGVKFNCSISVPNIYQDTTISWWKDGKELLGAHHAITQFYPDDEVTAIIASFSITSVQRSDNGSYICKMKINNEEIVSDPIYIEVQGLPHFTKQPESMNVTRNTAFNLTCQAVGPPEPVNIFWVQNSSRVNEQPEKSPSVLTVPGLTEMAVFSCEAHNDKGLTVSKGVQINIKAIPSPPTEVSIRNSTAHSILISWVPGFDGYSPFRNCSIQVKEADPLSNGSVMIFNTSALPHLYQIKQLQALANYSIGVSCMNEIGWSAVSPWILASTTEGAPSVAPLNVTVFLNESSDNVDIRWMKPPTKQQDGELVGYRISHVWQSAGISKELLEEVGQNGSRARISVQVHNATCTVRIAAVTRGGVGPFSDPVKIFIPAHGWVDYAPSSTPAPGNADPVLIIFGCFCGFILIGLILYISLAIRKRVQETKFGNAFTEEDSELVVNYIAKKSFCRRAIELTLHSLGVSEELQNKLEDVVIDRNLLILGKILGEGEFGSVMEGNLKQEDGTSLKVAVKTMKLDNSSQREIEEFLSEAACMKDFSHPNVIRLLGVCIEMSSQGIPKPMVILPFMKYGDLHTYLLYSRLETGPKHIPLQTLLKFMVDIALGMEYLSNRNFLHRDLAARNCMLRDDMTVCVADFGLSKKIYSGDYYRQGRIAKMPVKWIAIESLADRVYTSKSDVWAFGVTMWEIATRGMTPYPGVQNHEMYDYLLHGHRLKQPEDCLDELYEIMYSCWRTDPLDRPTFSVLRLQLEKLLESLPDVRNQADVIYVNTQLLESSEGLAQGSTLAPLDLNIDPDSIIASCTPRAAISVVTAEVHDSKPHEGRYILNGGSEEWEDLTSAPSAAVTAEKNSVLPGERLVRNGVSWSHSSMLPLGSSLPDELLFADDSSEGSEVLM
# T2: cyno MerTK-his protein (cynomolgus, UniProt A0A2K5V1H9 27-505)
# T2 construct: also called cyno MerTK protein; Cynomolgus
# T2 sequence: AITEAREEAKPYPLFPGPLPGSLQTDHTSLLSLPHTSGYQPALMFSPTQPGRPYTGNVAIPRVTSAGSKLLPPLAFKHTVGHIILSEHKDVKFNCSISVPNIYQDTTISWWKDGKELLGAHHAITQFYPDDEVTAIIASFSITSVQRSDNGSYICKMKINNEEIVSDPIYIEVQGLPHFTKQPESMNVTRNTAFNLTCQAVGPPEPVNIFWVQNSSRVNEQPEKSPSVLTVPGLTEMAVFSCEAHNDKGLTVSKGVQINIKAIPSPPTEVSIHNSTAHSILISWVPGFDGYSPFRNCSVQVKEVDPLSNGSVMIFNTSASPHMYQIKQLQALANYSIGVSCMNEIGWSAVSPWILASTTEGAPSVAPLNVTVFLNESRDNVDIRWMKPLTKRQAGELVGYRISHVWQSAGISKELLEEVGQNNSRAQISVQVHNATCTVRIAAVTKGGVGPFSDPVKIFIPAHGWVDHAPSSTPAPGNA
# T3: human MerTK-his protein (human, UniProt Q12866 21-505)
# T3 construct: extracellular domain; also called hMerTK-His; human MerTK protein
# T3 sequence (looked up): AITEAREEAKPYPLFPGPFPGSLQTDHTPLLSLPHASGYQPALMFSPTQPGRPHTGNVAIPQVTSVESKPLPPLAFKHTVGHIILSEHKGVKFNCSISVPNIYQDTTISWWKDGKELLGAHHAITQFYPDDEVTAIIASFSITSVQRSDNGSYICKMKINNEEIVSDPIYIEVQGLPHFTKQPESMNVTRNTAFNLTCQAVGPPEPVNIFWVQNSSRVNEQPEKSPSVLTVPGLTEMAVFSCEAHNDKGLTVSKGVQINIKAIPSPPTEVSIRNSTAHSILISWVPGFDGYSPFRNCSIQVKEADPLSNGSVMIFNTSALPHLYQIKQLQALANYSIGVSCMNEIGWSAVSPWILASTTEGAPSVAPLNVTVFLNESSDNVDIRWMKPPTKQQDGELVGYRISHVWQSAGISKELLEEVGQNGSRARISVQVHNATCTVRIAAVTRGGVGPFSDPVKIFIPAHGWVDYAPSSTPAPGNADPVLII
# B1: 254B4D9 chimeric monoclonal antibody (antibody, V domains shown)
# VH: QIQLVQSGPELKKPGETVKISCKASGYTFTAYGMSWVKQAPGKGLQWMGWINTYSGVPTYTDDFKGRFAFSLEASASTAFLQINNLKNEDTSTYFCARRAAVVAKYWYFDVWGTGTTVTVSS
# VL: DIQMTQSPSSLFASLGGKVIITCKSSQDINKRISWYQHKPGKGPRLLIHSTSSLQPGIPLRFSGSGSGRDYSFSISNLEPEDIATYFCLQYDNLLTFGAGTKLELK
# B2: 10F7D9 chimeric monoclonal antibody (antibody, V domains shown)
# VH: QIQLVQSGPELKKPGETVKISCKASGYTFTNYGMNWVKQAPGKGLKWMGWINTYTGEPTYADDFKGRFAFSLETSASTAYLQINNLKNEDLATYFCATYGHYAWFAYWGQGTLVTVSA
# VL: QIVLSQSPAILSASPGEKVTMTCRASSSVSYMHWYQQKSGSSPKPWIYATSNLASGVPARFSGSGSGTSYSLTISRVEAEDAATYFCQQWGTKPLTFGAGTKLELK
# B3: 265F11B5 chimeric monoclonal antibody (antibody, V domains shown)
# VH: QVQLQQSGPELVKPGASVRLSCKASGYTFTTYDINWVKQRPGLGLEWIGWIYPRDGYTKYNEKFKGRATLAVDTSSSTAYMELHSLTSEDSAVYFCTRGYYDNLYYFDYWGQGTTLTVSS
# VL: EIVLTQSPTTVAASPGEKITITCSASSIISSNYFHWYQQRPGFSPKLLIYRTSNLASGVPARFSGSGSGTSYSLTIGTMEAEDVATYYCQQGRSVPLTFGAGTKLELK
# B4: h13B4.v16 benchmark antibody (antibody, V domains shown)
# VH: EVQLVESGEGLVQPGGSLRLSCAASGFSLSSYAMGWVRQAPGKGLEYVGIINSYGNTYYANWAKGRFTISRDNSKNTVYLQMGSLRAEDMAVYYCARDPGVSSNLWGRGTLVTVSS
# VL: DIQMTQSPSTLSASVGDRVTITCQASQNIYSGLAWYQQKPGKAPKLLIYGASKLASGVPSRFSGSGSGTEFTLTISSLQPDDFATYYCQATYYSSNSVAFGGGTKVEIK
# Columns and labels:
# [1] = target: T1, human MerTK expressed on cells; assay: FACS on CHO-K1 cells overexpressing human MerTK, MFI (AF488)
# [2] = target: T1, human MerTK expressed on cells; assay: FACS on CHO-K1 cells overexpressing human MerTK, MFI (PE)
# Experimental: To evaluate the binding property to the antigen expressed on the cells, the chimeric monoclonal antibodies were analyzed for their binding to human MerTK overexpressed on CHO-K1 cells by FACS. Briefly, human MerTK overexpressing CHO-K1 (CHO-K1-MerTK) cells were firstly incubated with 5-fold serially diluted mAbs starting at 20 nM at 4° C. for 1 hour. After washing with FACS buffer, the PE conjugated anti-human IgG-Fc secondary antibody was added to each well and incubated at 4° C., for 30 mins. The mean fluorescence intensity (MFI) of PE were evaluated by QuantAnalyzer 16.
# To evaluate the binding property to the antigen expressed on the cells, the humanized antibodies were analyzed by FACS as described before.
# [3] = target: T1, human MerTK expressed on cells; assay: FACS on CHO-K1 cells overexpressing human MerTK, MFI (AF488); remark: listed apart in the source
# [4] = target: T2, cyno MerTK-his protein; assay: ELISA, plate coated with cyno MerTK-his, anti-human IgG Fc-HRP, OD 450nm
# [5] = target: T3, human MerTK-his protein; assay: ELISA, plate coated with human MerTK-his, anti-human IgG Fc-HRP, OD 450nm
# [6] = target: T2, cyno MerTK-his protein; assay: ELISA, plate coated with cyno MerTK-his, anti-human IgG Fc-HRP, OD 450nm; remark: listed apart in the source
binder,measurement,setting,value
B1,EC50,[1],1 nM
B2,EC50,[2],0.23 nM
B3,EC50,[3],0.18 nM
B4,EC50,[4],0.027 nM
same,EC50,[5],0.037 nM
same,EC50,[6],0.044 nM
